From PMC2950890 (Nature structural & molecular biology, 2010)

Target: T1, Escherichia coli RecB (E. coli, UniProt P08394 1-1180)
T1 sequence: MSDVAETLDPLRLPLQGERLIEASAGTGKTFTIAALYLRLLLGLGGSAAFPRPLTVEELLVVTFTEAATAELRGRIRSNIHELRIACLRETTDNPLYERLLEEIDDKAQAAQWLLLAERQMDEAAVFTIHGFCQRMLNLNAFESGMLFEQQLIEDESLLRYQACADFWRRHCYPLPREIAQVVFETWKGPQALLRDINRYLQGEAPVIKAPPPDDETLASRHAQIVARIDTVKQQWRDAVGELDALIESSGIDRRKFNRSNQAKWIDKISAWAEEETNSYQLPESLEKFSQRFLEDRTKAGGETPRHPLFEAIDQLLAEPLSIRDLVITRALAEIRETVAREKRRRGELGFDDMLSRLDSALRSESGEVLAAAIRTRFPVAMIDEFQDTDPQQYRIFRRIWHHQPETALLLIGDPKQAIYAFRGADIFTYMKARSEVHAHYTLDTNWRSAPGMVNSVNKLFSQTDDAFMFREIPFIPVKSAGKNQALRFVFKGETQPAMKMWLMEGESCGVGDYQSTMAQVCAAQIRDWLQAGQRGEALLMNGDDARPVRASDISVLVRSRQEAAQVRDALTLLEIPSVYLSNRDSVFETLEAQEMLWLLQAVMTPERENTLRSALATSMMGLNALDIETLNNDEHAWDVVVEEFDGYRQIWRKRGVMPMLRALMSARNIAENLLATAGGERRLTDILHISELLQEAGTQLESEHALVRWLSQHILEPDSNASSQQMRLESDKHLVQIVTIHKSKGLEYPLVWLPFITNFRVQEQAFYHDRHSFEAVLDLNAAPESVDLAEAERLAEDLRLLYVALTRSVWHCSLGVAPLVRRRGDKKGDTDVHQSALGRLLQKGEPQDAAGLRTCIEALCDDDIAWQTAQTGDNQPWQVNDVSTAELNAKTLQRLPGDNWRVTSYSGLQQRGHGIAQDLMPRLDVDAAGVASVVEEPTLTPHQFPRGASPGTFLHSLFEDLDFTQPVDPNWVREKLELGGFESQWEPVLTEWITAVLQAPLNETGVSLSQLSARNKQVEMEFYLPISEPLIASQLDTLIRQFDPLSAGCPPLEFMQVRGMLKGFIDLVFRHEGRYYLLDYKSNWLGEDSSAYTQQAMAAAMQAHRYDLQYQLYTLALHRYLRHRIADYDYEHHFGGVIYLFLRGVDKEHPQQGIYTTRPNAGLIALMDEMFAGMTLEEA
Assay: reconstitution of the complex from separately purified subunits

- binding result: binds
B1: Escherichia coli RecC (natural protein)
chain: MLRVYHSNRLDVLEALMEFIVERERLDDPFEPEMILVQSTGMAQWLQMTLSQKFGIAANIDFPLPASFIWDMFVRVLPEIPKESAFNKQSMSWKLMTLLPQLLEREDFTLLRHYLTDDSDKRKLFQLSSKAADLFDQYLVYRPDWLAQWETGHLVEGLGEAQAWQAPLWKALVEYTHQLGQPRWHRANLYQRFIETLESATTCPPGLPSRVFICGISALPPVYLQALQALGKHIEIHLLFTNPCRYYWGDIKDPAYLAKLLTRQRRHSFEDRELPLFRDSENAGQLFNSDGEQDVGNPLLASWGKLGRDYIYLLSDLESSQELDAFVDVTPDNLLHNIQSDILELENRAVAGVNIEEFSRSDNKRPLDPLDSSITFHVCHSPQREVEVLHDRLLAMLEEDPTLTPRDIIVMVADIDSYSPFIQAVFGSAPADRYLPYAISDRRARQSHPVLEAFISLLSLPDSRFVSEDVLALLDVPVLAARFDITEEGLRYLRQWVNESGIRWGIDDDNVRELELPATGQHTWRFGLTRMLLGYAMESAQGEWQSVLPYDESSGLIAELVGHLASLLMQLNIWRRGLAQERPLEEWLPVCRDMLNAFFLPDAETEAAMTLIEQQWQAIIAEGLGAQYGDAVPLSLLRDELAQRLDQERISQRFLAGPVNICTLMPMRSIPFKVVCLLGMNDGVYPRQLAPLGFDLMSQKPKRGDRSRRDDDRYLFLEALISAQQKLYISYIGRSIQDNSERFPSVLVQELIDYIGQSHYLPGDEALNCDESEARVKAHLTCLHTRMPFDPQNYQPGERQSYAREWLPAASQAGKAHSEFVQPLPFTLPETVPLETLQRFWAHPVRAFFQMRLQVNFRTEDSEIPDTEPFILEGLSRYQINQQLLNALVEQDDAERLFRRFRAAGDLPYGAFGEIFWETQCQEMQQLADRVIACRQPGQSMEIDLACNGVQITGWLPQVQPDGLLRWRPSLLSVAQGMQLWLEHLVYCASGGNGESRLFLRKDGEWRFPPLAAEQALHYLSQLIEGYREGMSAPLLVLPESGGAWLKTCYDAQNDAMLDDDSTLQKARTKFLQAYEGNMMVRGEGDDIWYQRLWRQLTPETMEAIVEQSQRFLLPLFRFNQS
